The record followed here is publication PMC8489136, “LncRNA MALAT1 was regulated by HPV16 E7 independently of pRB in cervical cancer cells”.

The target of this data set is HPV16 E7 (His-E7) (Human papillomavirus type 16, UniProt P03129 1-98). Kind of data set: EMSA; inhibited by excess unlabeled probe; EMSA buffer, salt, pH and temperature not given; UV crosslinking: 20 min incubation in binding buffer (composition not given), 254 nm 30 min on ice. The note with it: protein: recombinant; tags: His; label: biotin; blunt. Background: In EMSA bound probe runs differently from free probe, usually more slowly.
Chain of HPV16 E7 (His-E7) (P03129 whole entry): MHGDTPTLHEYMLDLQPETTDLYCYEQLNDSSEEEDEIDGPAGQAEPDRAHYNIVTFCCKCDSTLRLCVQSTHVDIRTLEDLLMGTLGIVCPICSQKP

B1: MALAT1 promoter probe2 (dsDNA)
DNA 1: AGCTGCCACCCCGCCCCCATGCCAT
DNA 2: ATGGCATGGGGGCGGGGTGGCAGCT
modifications: 5'-biotin
As for B1, the binding result was “binds”.

B2: MALAT1 promoter probe1 (dsDNA)
DNA 1: CAGGCGTTAGGGCGGGGCGCGCGTGC
DNA 2: GCACGCGCGCCCCGCCCTAACGCCTG
modifications: 5'-biotin
With B2, the binding result is “binds”.
